In paper PMC4697752:

B1: Matrix metalloproteinase-9 (MMP-9): mS38 (protein)
parent chain: MSLWQPLVLVLLVLGCCFAAPRQRQSTLVLFPGDLRTNLTDRQLAEEYLYRYGYTRVAEMRGESKSLGPALLLLQKQLSLPETGELDSATLKAMRTPRCGVPDLGRFQTFEGDLKWHHHNITYWIQNYSEDLPRAVIDDAFARAFALWSAVTPLTFTRVYSRDADIVIQFGVAEHGDGYPFDGKDGLLAHAFPPGPGIQGDAHFDDDELWSLGKGVVVPTRFGNADGAACHFPFIFEGRSYSACTTDGRSDGLPWCSTTANYDTDDRFGFCPSERLYTQDGNADGKPCQFPFIFQGQSYSACTTDGRSDGYRWCATTANYDRDKLFGFCPTRADSTVMGGNSAGELCVFPFTFLGKEYSTCTSEGRGDGRLWCATTSNFDSDKKWGFCPDQGYSLFLVAAHEFGHALGLDHSSVPEALMYPMYRFTEGPPLHKDDVNGIRHLYGPRPEPEPRPPTTTTPQPTAPPTVCPTGPPTVHPSERPTAGPTGPPSAGPTGPPTAGPSTATTVPLSPVDDACNVNIFDAIAEIGNQLYLFKDGKYWRFSEGRGSRPQGPFLIADKWPALPRKLDSVFEERLSKKLFFFSGRQVWVYTGASVLGPRRLDKLGLGADVAQVTGALRSGRGKMLLFSGRRLWRFDVKAQMVDPRSASEVDRMFPGVPLDTHDVFQYREKAYFCQDRFYWRVSSRSELNQVDQVGYVTYDILQCPED
B2: Matrix metalloproteinase-9 (MMP-9): N120S (protein)
parent chain: MSLWQPLVLVLLVLGCCFAAPRQRQSTLVLFPGDLRTNLTDRQLAEEYLYRYGYTRVAEMRGESKSLGPALLLLQKQLSLPETGELDSATLKAMRTPRCGVPDLGRFQTFEGDLKWHHHNITYWIQNYSEDLPRAVIDDAFARAFALWSAVTPLTFTRVYSRDADIVIQFGVAEHGDGYPFDGKDGLLAHAFPPGPGIQGDAHFDDDELWSLGKGVVVPTRFGNADGAACHFPFIFEGRSYSACTTDGRSDGLPWCSTTANYDTDDRFGFCPSERLYTQDGNADGKPCQFPFIFQGQSYSACTTDGRSDGYRWCATTANYDRDKLFGFCPTRADSTVMGGNSAGELCVFPFTFLGKEYSTCTSEGRGDGRLWCATTSNFDSDKKWGFCPDQGYSLFLVAAHEFGHALGLDHSSVPEALMYPMYRFTEGPPLHKDDVNGIRHLYGPRPEPEPRPPTTTTPQPTAPPTVCPTGPPTVHPSERPTAGPTGPPSAGPTGPPTAGPSTATTVPLSPVDDACNVNIFDAIAEIGNQLYLFKDGKYWRFSEGRGSRPQGPFLIADKWPALPRKLDSVFEERLSKKLFFFSGRQVWVYTGASVLGPRRLDKLGLGADVAQVTGALRSGRGKMLLFSGRRLWRFDVKAQMVDPRSASEVDRMFPGVPLDTHDVFQYREKAYFCQDRFYWRVSSRSELNQVDQVGYVTYDILQCPED
B3: Matrix metalloproteinase-9 (MMP-9): mS38/N120S (protein)
parent chain: MSLWQPLVLVLLVLGCCFAAPRQRQSTLVLFPGDLRTNLTDRQLAEEYLYRYGYTRVAEMRGESKSLGPALLLLQKQLSLPETGELDSATLKAMRTPRCGVPDLGRFQTFEGDLKWHHHNITYWIQNYSEDLPRAVIDDAFARAFALWSAVTPLTFTRVYSRDADIVIQFGVAEHGDGYPFDGKDGLLAHAFPPGPGIQGDAHFDDDELWSLGKGVVVPTRFGNADGAACHFPFIFEGRSYSACTTDGRSDGLPWCSTTANYDTDDRFGFCPSERLYTQDGNADGKPCQFPFIFQGQSYSACTTDGRSDGYRWCATTANYDRDKLFGFCPTRADSTVMGGNSAGELCVFPFTFLGKEYSTCTSEGRGDGRLWCATTSNFDSDKKWGFCPDQGYSLFLVAAHEFGHALGLDHSSVPEALMYPMYRFTEGPPLHKDDVNGIRHLYGPRPEPEPRPPTTTTPQPTAPPTVCPTGPPTVHPSERPTAGPTGPPSAGPTGPPTAGPSTATTVPLSPVDDACNVNIFDAIAEIGNQLYLFKDGKYWRFSEGRGSRPQGPFLIADKWPALPRKLDSVFEERLSKKLFFFSGRQVWVYTGASVLGPRRLDKLGLGADVAQVTGALRSGRGKMLLFSGRRLWRFDVKAQMVDPRSASEVDRMFPGVPLDTHDVFQYREKAYFCQDRFYWRVSSRSELNQVDQVGYVTYDILQCPED

assay: secreted mCherry-tagged MMP-9, microplate reader; details: glycan lost; control: wild type

For B1, which expression_or_secretion is on record?
The expression_or_secretion was “no change”.

Which expression_or_secretion does the source give for B2 here?
The expression_or_secretion was “decreases”.

With B3 as the protein, how does the expression_or_secretion read?
Its expression_or_secretion is “decreases”.
